# Key:
# Assay in all cases: Turnover rate of the hydrolysis reaction in the absence of a nucleophilic peptide
# Assay type in all cases: biochemical
# [1] = molecular target: T1, Bz-PGGYRAHAG-OH (acyl donor) (Rattus norvegicus, UniProt P00763, D194K/K66E/Y45H/Y65H); settings: Zinc ions (100 μM): yes; varying Bz-PGGYRAHAG-OH, 2 μM trypsin variant, no nucleophilic peptide
# T1 construct: made in house; host or cells: Pichia pastoris X-33
# T1 sequence (P00763 24-246 Y45H/Y65H/K66E/D194K): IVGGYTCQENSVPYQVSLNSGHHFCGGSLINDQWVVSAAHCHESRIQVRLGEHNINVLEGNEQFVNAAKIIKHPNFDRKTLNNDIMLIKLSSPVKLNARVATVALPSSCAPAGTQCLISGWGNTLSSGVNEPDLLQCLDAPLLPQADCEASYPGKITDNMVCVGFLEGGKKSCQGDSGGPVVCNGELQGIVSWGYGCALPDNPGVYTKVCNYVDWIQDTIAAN
# Procedure: (§1) Hydrolysis reactions were performed in a solution containing varying concentrations of the acyl donor Bz-[…]-OH (0-5000 μM for Trypsiligase II, 0-1500 μM for variant A2C8), 2 μM trypsin variant, 100 mM HEPES/NaOH pH 7.8, 100 mM NaCl, 10 mM CaCl2 at 30° C. In case of Trypsiligase II the reactions were performed in the presence of 100 μM ZnCl2. The reaction was started by the addition of enzyme. For kinetic evaluation of the reaction several aliquots of the reaction mixture were quenched with 25% (v/v) acetic acid at distinct time points within 30 minutes. The composition of the reaction mixture was analyzed by UPCL using method I (see example 1). UV absorption of the N-terminal benzoyl-group (Bz-), which is present in the acyl donor as well as in the hydrolysis product, was detected at 254 nm. To determine the turnover rate of the hydrolysis reaction (kcat,HL) the initial rates for the hydrolysis reaction were plotted against the corresponding acyl donor concentration and fitted to the Michaelis Menten equation. Measurements were performed as duplicates and errors were less than 5%.
# [2] = test system: Bz-PGGYRAHAG-OH (acyl donor)
# Procedure: as §1
# [3] = molecular target: T2, Bz-PGGYRAHAG-OH (acyl donor) (Rattus norvegicus, UniProt P00763, A221T/D194K/E154Y/G219Q/H46F/K102D/K66E/L104F/N146E/Q197A/R101E/S195V/S215G/Y45H/Y65H); settings: Zinc ions: no; varying Bz-PGGYRAHAG-OH, 2 μM trypsin variant, no nucleophilic peptide
# T2 construct: made in house; host or cells: Pichia pastoris X-33
# T2 sequence (P00763 24-246 Y45H/H46F/Y65H/K66E/R101E/K102D/L104F/N146E/E154Y/D194K/S195V/Q197A/S215G/G219Q/A221T): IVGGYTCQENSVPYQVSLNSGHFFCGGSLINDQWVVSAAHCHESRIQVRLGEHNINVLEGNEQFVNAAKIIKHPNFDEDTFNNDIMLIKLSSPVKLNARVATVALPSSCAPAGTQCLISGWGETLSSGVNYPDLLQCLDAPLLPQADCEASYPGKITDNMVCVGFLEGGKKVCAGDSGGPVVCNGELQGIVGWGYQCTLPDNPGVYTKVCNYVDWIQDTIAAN
# Procedure: as §1
Molecule,"kcat, HL (mkat/mol) [1] [mkat/mol]",reduction in the enzyme's hydrolysis activity versus Trypsiligase II (factor) [2],"kcat, HL (mkat/mol) [3] [mkat/mol]"
Trypsiligase II (trypsin variant Y39H/Y59H/K60E/D189K) (protein) IVGGYTCQENSVPYQVSLNSGHHFCGGSLINDQWVVSAAHCHESRIQVRLGEHNINVLEGNEQFVNAAKIIKHPNFDRKTLNNDIMLIKLSSPVKLNARVATVALPSSCAPAGTQCLISGWGNTLSSGVNEPDLLQCLDAPLLPQADCEASYPGKITDNMVCVGFLEGGKKSCQGDSGGPVVCNGELQGIVSWGYGCALPDNPGVYTKVCNYVDWIQDTIAAN,602.1,,
"A2C8: Trypsiligase II + H40F, A55A, R96E, K97D, L99F, N143E, E151Y, S190V, Q192A, S214G, G219Q, A221T (protein) IVGGYTCQENSVPYQVSLNSGHFFCGGSLINDQWVVSAAHCHESRIQVRLGEHNINVLEGNEQFVNAAKIIKHPNFDEDTFNNDIMLIKLSSPVKLNARVATVALPSSCAPAGTQCLISGWGETLSSGVNYPDLLQCLDAPLLPQADCEASYPGKITDNMVCVGFLEGGKKVCAGDSGGPVVCNGELQGIVGWGYQCTLPDNPGVYTKVCNYVDWIQDTIAAN",,7,86.6
